Source: patent JP2012050437A

What was measured:
[1] = molecular target: aggregated synthetic Aβ1-42 (human) (UniProt P05067); experiment: competition Aβ1-42 ELISA; competitor biotin-conjugated m12A11Cγ2a at a fixed concentration
[2] = molecular target: Aβ peptide (bio-DAE peptide); experiment: Biacore (data not shown); the immobilised Aβ antigen is not given

fold of IC50 against murine and chimeric 12A11 [1]: < 2 fold | Kd [2]: 23 nM
B1: humanized 12A11 antibody, version 1 (antibody, V domains shown)
VH: QVQLVESGGGVVQPGRSLRLSCAFSGFSLSTSGMSVGWIRQAPGKGLEWLAHIWWDDDKYYNPSLKSRLTISKDTSKNTVYLQMNSLRAEDTAVYYCARRTTTADYFAYWGQGTTVTVSS
VL: DVVMTQSPLSLPVTPGEPASISCRSSQSIVHSNGNTYLEWYLQKPGQSPQLLIYKVSNRFSGVPDRFSGSGSGTDFTLKISRVEAEDVGVYYCFQSSHVPLTFGQGTKLEIK
